This passage reports Kd results from publication PMC7591920, “A protein tertiary structure mimetic modulator of the Hippo signalling pathway” (Nature Communications, 2020).

Test [1] addresses GST-hTEAD1(209–426) (human) (UniProt P28347). Put plainly: not stated; values of Supplementary Table 1; the method is not given.
Test [2] concerns the target mouse TEAD4(210–427), as purified (SPR) (mouse) (UniProt Q62296). The description is as above.

Sequence of mouse TEAD4(210–427), as purified (SPR) (mouse) (Q62296 210-427): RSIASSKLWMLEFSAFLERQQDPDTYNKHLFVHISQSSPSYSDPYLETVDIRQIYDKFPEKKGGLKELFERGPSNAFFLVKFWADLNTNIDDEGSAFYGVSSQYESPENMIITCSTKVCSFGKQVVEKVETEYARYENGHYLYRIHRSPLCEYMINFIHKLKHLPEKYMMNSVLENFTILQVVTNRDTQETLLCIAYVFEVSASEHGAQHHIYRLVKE

A word on the Kd: it is the constant that tells how readily two partners part at equilibrium. Read a low Kd as tighter binding. As for “VGL4 two-helix motif peptide with K250 varied to alanine (from UniProt Q80V24 203-256)”, the Kd amounted to 17 µM in test [1] and 12 µM in test [2].
